Values of other authors, collected in US20240024427A1, “METHOD OF REDUCING INTRAOCULAR PRESSURE” (INVEX THERAPEUTICS LTD, priority 2020, published 2024).
Like-named read-outs stand apart in the source and are kept apart here.

Legend:
[1] = conscious rat model, dosed subcutaneously, immediate release formulation

Substance	Mean plasma terminal half-life (per SmPC)	further results
Semaglutide	Approximately 1 week	–
Albiglutide	Approximately 5 days	–
Lixisenatide	–	Mean plasma terminal half-life (per SmPC or FDA product label): Approximately 3 hours
Dulaglutide	108 to 113 h	–
exendin-4	–	effect on intracranial pressure (ICP) compared to a saline control [1]: reduced ICP
